Assay results reported in patent publication US12258605B2, “Alkane oxidation by modified hydroxylases” (The California Institute of Technology, priority 2005, dated 2025).
Changes are numbered by the printed parent chain. Numbers in names are those of the source. Marks after values point to notes of the source that are not given here.

B1: 35-E11-E464R: P450 BM-3 variant, SEQ ID NO:8; 35-E11 with E464R (protein)
chain: TIKEMPQPKTFGELKNLPLLNTDKPVQALMKIADELGEIFKFEAPGCVTRYLSSQRLIKEACDESRFDKNLSQALKFFRDFSGDGLFTSWTHEINWKKAHNILLPSFSQQAMKGYHAMMVDIAVQLVQKWERLNADEHIEVSEDMTRLTLDTIGLCGFNYRFNSFYRDQPHPFIISMVRALDEVMNKLQRANPDDPAYDENKRQCQEDIKVMNDLVDKIIADRKARGEQSDDLLTQMLNGKDPETGEPLDDGNISYQIITFLIAGHETTSGLLSFALYFLVKNPHVLQKVVEEAARVLVDPVPSYKQVKQLKYVGMVLNEALRLWPTFPAFSLYAKEDTVLGGEYPLEKGDEVMVLIPQLHRDKTIWGDDVEEFRPERFENPSAIPQHAFKPFGNGQRACIGQQFALHEATLVLGMMLKHFDFEDHTNYELDIKETLTLKPEGFVVKAKSKKIPLGGIPSPSTRQSAKKVRKKAENAHNTPLLVLYGSNMGTAEGTARDLADIAMSKGFAPQVATLDSHAGNLPREGAVLIVTASYNGHPPDNAKQFVDWLDQASADEVKGVRYSVFGCGDKNWATTYQKVPAFIDETLAAKGAENIADRGEADASDDFEGTYEEWREHMWSDVAAYFNLDIENSEDNKSTLSLQFVDSAADMPLAKMHGAFSTNVVASKELQQPGSARSTRHLEIELPKEASYQEGDHLGVIPRNYEGTVNRVTARFGLDASQQIRLEAEEEKLAHLPLAKTVSVEELLQYVELQDPVTRTQLRAMAAKTVCPPHKVELEALLEKQAYKEQVLAKRLTMLELLEKYPACEMKFSEFIALLPSIRPRYYSISSSPRVDEKQASITVSVVSGEAWSGYGEYKGIASNYLAELQEGDTITCFISTPQSEFTLPKDPETPLIMVGPGTGVAPFRGFVQARKQLKEQGQSLGEAHLYFGCRSPHEDYLYQEELENAQSEGIITLHTAFSRMPNQPKTYVQHVMEQDGKKLIELLDQGAHFYICGDGSQMAPAVEATLMKSYADVHQVSEADARLWLQQLEEKGRYAKDVWAG
modifications: mutant P450 35-E11-E464R protein sequence
notes: 35-E11 with E464R
B2: 35-E11-E464Y: P450 BM-3 variant, SEQ ID NO:9; 35-E11 with E464Y (protein)
chain: B1 chain with R464Y
modifications: mutant P450 35-E11-E464Y protein sequence
notes: 35-E11 with E464Y
B3: 35-E11-E464T: P450 BM-3 variant, SEQ ID NO:10; 35-E11 with E464T (protein)
chain: B1 chain with R464T
modifications: mutant P450 35-E11-E464T protein sequence
notes: 35-E11 with E464T
B4: 23-1D: P450 BM-3 variant, SEQ ID NO:12; 35-E11 plus Q645R, P968L (protein)
chain: B1 chain with R464G, Q645R, P968L
modifications: Mutant P450 23-1D protein sequence
notes: 35-E11 plus Q645R, P968L
B5: 21-4G: P450 BM-3 variant, SEQ ID NO:13; 35-E11 plus D631N (protein)
chain: B1 chain with R464G, D631N
modifications: Mutant P450 21-4G protein sequence
notes: 35-E11 plus D631N

Assay: Methane to methanol conversion (alcohol oxidase/Purpald)
Format: biochemical
Conditions: methane to methanol
Procedure: The 35-E11 variant was tested for the ability to convert methane to methanol using the method of Anthon and Barrett (Agric. Food Chem., 52:3749 (2004)). The method was optimized so that it could detect methanol concentrations in water as low as 10 μM.
The mutant BM-3 enzymes described below were purified using published procedures and used as catalysts in small reactions with methane. In glass head space vials containing magnetic stirring bars, BM-3 catalyst was added to 0.1 M potassium phosphate buffer (pH=8) saturated with methane. The vials were then crimped shut and charged to 20 psi with methane. To start the biotransformation, an NADPH regeneration system consisting of NADP+, isocitrate, and isocitric dehydrogenase was added through a syringe. The reaction was allowed to stir 12-15 hours. Methanol production was measured using a coupled enzyme assay. Aliquots of the reaction were transferred to 96-well microtitre plates and reacted with the enzyme alcohol oxidase for 5 minutes at room temperature. Alcohol oxidase converts the methanol produced by the BM-3 variants into formaldehyde which can be detected with the dye Purpald. To detect formaldehyde and quench the alcohol oxidase reaction, a solution of Purpald in 2 M NaOH was added and allowed to react for one hour. The purple color that Purpald forms in the presence of formaldehyde was quantified one hour later by spectrophotometrically reading the well at 550 nm and comparing the absorbance against similarly-treated solutions of BM-3, NADPH regeneration system, and methane-free buffer spiked with known concentrations of methanol. The results of these biotransformations are reported in Table 3 and sample spectra from the colorimetric assay are shown in FIG. 7.
Reactions for enzyme-catalyzed conversion of methane to methanol were carried out in 10 mL glass headspace vials. A 470 μL reaction mixture containing 5 μM purified BM-3 variant in 0.1 M potassium phosphate buffer (pH 8.0) was first added to the vial. The vial was immediately topped with a septum, pressurized with 30 psi of methane and shaken at 4° C. for 1 hour. […] For determination of total turnover, the reaction was allowed to proceed for 20 hours at room temperature.
The amount of methanol product formed during the 20 hr methane reaction was quantified colorimetrically with the use of alcohol oxidase and Purpald. 190 μL of the reaction mixture is transferred onto a single cell of a 96 well plate. 10 μL of 0.05 U/μL solution of alcohol oxidase (from Pichia pastoris, purchased from Sigma-Aldrich) was added to cell and allowed to incubate at room temperature for 5 minutes. During this time, the alcohol oxidase converts the methanol into formaldehyde. Purpald (168 mM in 2 M NAOH) was then added to form a purple product with the formaldehyde in solution. The purple color was read approximately 1 hour later at 550 nm using a Spectramax Plus microtiter plate reader. The concentration of methanol was determined based on the measure absorbance in comparison to a methanol calibration curve. The methanol calibration curve was generated with several standards. Each standard contained 100 μL of a methanol solution (10, 20, 40, 60, 100 μM) and 90 μL of the methane reaction mixture described above, without the methane pressurization.
The relative dimethyl ether (DME) activity was measured, 1 hour after treatment with Purpald, as the average net and absorbance at 550 nm from 8 microtitre plate DME reactions of the mutant compared to 8 equivalent reactions of 35-E11. All values were normalized by measuring the P450 concentration in each well with CO binding. “Asteriks” indicate criteria used to select mutants from libraries for further characterization. The oxidation rate is measured as absorbance change at 340 nm over 1 minute upon the addition of NADPH to 8 microtitre plate wells containing P450-containing cell lysate and compared to 8 equivalent reactions of 35-E11. […]
In the case of B1, the “Methane TTN” value is reported as 12.
In the case of B2, the “Methane TTN” value is reported as 13.
In the case of B3, the “Methane TTN” value is reported as 11.
With B4 the “Methane TTN” value was 11.
For B5, the “Methane TTN” value was 10.

Assay: High-throughput dimethyl ether (DME) screen
Format: biochemical
Conditions: relative to 35-E11; normalized to P450 concentration
Procedure: Cell lysates for high throughput screening were prepared as described previously (Peters et al., J. Am. Chem. Soc. 125:13442 (2003); incorporated by reference herein). High-throughput dimethyl ether (DME) screens were performed in 96 well plates as described previously. Improved mutants were selected based on an increased signal compared to 9-10A (for the saturation mutagenesis libraries) and 1-12G (for the recombination library). Reactions on octane and propane were analyzed by gas chromatography as described.
(§1) Libraries of mutants of 35-E11 were screened for phenotypes indicative of either increased product formation on small gaseous substrates slightly larger than methane. Additionally, they were screened for increased coupling of the consumption of NADPH reducing equivalents to product formation. Product formation was determined by measuring total amount of dimethyl ether hydroxylation while increased coupling was determined primarily by decreased background NADPH consumption rates (measured spectrophotometrically at 340 nm in the absence of substrate).
The relative dimethyl ether (DME) activity was measured, 1 hour after treatment with Purpald, as the average net and absorbance at 550 nm from 8 microtitre plate DME reactions of the mutant compared to 8 equivalent reactions of 35-E11. All values were normalized by measuring the P450 concentration in each well with CO binding. “Asteriks” indicate criteria used to select mutants from libraries for further characterization. The oxidation rate is measured as absorbance change at 340 nm over 1 minute upon the addition of NADPH to 8 microtitre plate wells containing P450-containing cell lysate and compared to 8 equivalent reactions of 35-E11. All values were normalized by measuring the P450 concentration in each well with CO binding. The total turnover number (TTN) was measured as the absorbance at 550 nm of methane reactions with each mutant after treatment with alcohol oxidase and
Screening libraries by spectroscopically monitoring NADPH consumption rates in the presence of the alkane often selects for mutants with NADPH oxidation rates highly uncoupled to product formation. This can be overcome through the use of surrogate substrates that mimic desired substrates, yet yield species when hydroxylated that are easily detected either directly or with the addition of a dye. For example, the screen for the high-throughput identification of mutant BM-3 enzymes with activity towards propane as described previously uses dimethyl ether (DME) as a propane surrogate substrate. Upon hydroxylation, it decomposes into methanol and dye-sensitive formaldehyde. In addition, hexyl methyl ether (HME) may be used as a surrogate for octane. It shares most of the physical properties of octane, including solubility in buffer, size, shape, and strength of its C—H bonds. When HME is hydroxylated at its methoxy carbon, it also produces an equivalent of formaldehyde which is visually detected at concentrations as low as 10 μM with the dye Purpald (see FIG. 25). Hexanal, the aldehyde product formed when the α-carbon of the hexyl group is hydroxylated, is practically unreactive towards Purpald at some concentrations used in the present screens. Formaldehyde is approximately 42 times more sensitive to Purpald than hexanal (see FIG. 26). This disproportionate response makes HME, in contrast to the symmetric ether DME, a regio-selective screen for terminal alkane hydroxylation.
High-throughput screening. Single colonies were picked and inoculated by a Qpix robot (Genetix, Beaverton, OR) into 1-mL, deep-well plates containing LB (Amp*) medium (400 μL). The plates were incubated at 30° C., 250 rpm, and 80% relative humidity. After 24 h, 50 μL from this pre-culture were used to inoculate a 2-mL, deep-well plates containing […] TB (Amp^+) medium per well. Cultures were grown at 37° C., 220 rpm, and 80% relative humidity. […]
With B1 the “Relative DME activity in screen” value was 0.9.
With B2 the “Relative DME activity in screen” value was 0.8.
With B3 the “Relative DME activity in screen” value was 0.8.
In the case of B4, the “Relative DME activity in screen” value is reported as 0.7.
With B5 the “Relative DME activity in screen” value was 1.1.

Assay: Background NADPH oxidation rate in screen (cell lysate, no substrate)
Format: biochemical
Conditions: relative to 35-E11
Procedure: as §1
The relative dimethyl ether (DME) activity was measured, 1 hour after treatment with Purpald, as the average net and absorbance at 550 nm from 8 microtitre plate DME reactions of the mutant compared to 8 equivalent reactions of 35-E11. All values were normalized by measuring the P450 concentration in each well with CO binding. “Asteriks” indicate criteria used to select mutants from libraries for further characterization. The oxidation rate is measured as absorbance change at 340 nm over 1 minute upon the addition of NADPH to 8 microtitre plate wells containing P450-containing cell lysate and compared to 8 equivalent reactions of 35-E11. All values were normalized by measuring the P450 concentration in each well with CO binding. The total turnover number (TTN) was measured as the absorbance at 550 nm of methane reactions with each mutant after treatment with alcohol oxidase and […]
In the case of B1, the “Relative background NADPH oxidation rate” value is reported as 0.6*.
In the case of B2, the “Relative background NADPH oxidation rate” value is reported as 0.7*.
In the case of B3, the “Relative background NADPH oxidation rate” value is reported as 0.7*.
With B4 the “Relative background NADPH oxidation rate” value was 0.8*.
With B5 the “Relative background NADPH oxidation rate” value was 0.7*.
